Biological target: T1, human α-CGRP (Homo sapiens, UniProt P06881)
T1 construct: 1-37 (WT); purchased GenScript Corporation or Global Peptide Services
T1 sequence (P06881 83-119 limits assumed): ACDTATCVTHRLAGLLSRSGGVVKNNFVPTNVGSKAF
Assay: Biacore affinity of G1 Fab and variants to human α-CGRP
Format: binding
Conditions: 37° C.; Fab fragments; screening mode except underlined values (G1 high-resolution mode)
Description: Biacore assay for affinity determination. […] All Biacore assays were conducted in HBS-EP running buffer (10 mM HEPES pH 7.4, 150 mM NaCl, 3 mM EDTA, 0.005% v/v polysorbate P20). CGRP surfaces were prepared by diluting the N-biotinylated CGRP to a concentration of less than 0.001 mg/mL into HBS-EP buffer and injecting it across the SA sensor chip using variable contact times. Low capacity surfaces, corresponding to capture levels <50 response units (RU) were used for high-resolution kinetic studies, whereas high capacity surfaces (about 800 RU of captured CGRP) were used for concentration studies, screening, and solution affinity determinations. […] Samples were typically injected for 1 minute at 100 μL/min and dissociation times of at least 10 minutes were allowed. After each binding cycle, surfaces were regenerated with 25 mM NaOH in 25% v/v ethanol, which was tolerated over hundreds of cycles. […]
High-resolution analysis of binding interactions with extremely slow offrates. […] The association rate constant (kon) was determined by injecting a 2-fold titration series (in duplicate) spanning 550 nM-1 nM for 30 sec at 100 uL/min and allowing only a 30 sec dissociation phase. The dissociation rate constant (koff) was determined by injecting three concentrations (high, medium, and low) of the same titration series in duplicate for 30 sec and allowing a 2-hour dissociation phase. […]

α-human koff: 0.00014 s⁻¹
B1: M25: G1 variant: L1 R28N; HC-FW3 L99T A100V (antibody, V domains shown)
VH: EVQLVESGGGLVQPGGSLRLSCAASGFTFSNYWISWVRQAPGKGLEWVAEIRSESDASATHYAEAVKGRFTISRDNAKNSLYLQMNSLRAEDTAVYYCTVYFDYGLAIQNYWGQGTLVTVSS
VL: EIVLTQSPATLSLSPGERATLSCKASKNVTTYVSWYQQKPGQAPRLLIYGASNRYLGIPARFSGSGSGTDFTLTISSLEPEDFAVYYCSQSYNYPYTFGQGTKLEIK

Reference: US20170037117A1, “COMPOSITIONS AND METHODS FOR TREATING METABOLIC DISORDERS” (Salk Institute for Biological Studies, priority 2014, published 2017)
